{
  "source": "the RNAGym collection of RNA variant scans (doi:10.7554/elife.80360)",
  "parents": {"B1": {"name": "HDV Ribozyme (parent)", "chain": "GGCCGGCAUGGUCCCAGCCUCCUCGCUGGCGCCGGCUGGGCAACAUUCCGAGGGGACCGUCCCCUCGGUAAUGGCGAAUGGGACCCA"}},
  "data": [
    {"variants_of": "B1", "assay": "self-cleavage, relative activity (ratio to wild type); higher = more cleavage; co-transcriptional", "values": [
      {"variant": "C26U U46A", "self-cleavage": 0.731},
      {"variant": "C26U U46G", "self-cleavage": 0.787},
      {"variant": "C26U U47C", "self-cleavage": 1.02},
      {"variant": "C26U U60A", "self-cleavage": 1.05},
      {"variant": "C26U U60G", "self-cleavage": 0.831},
      {"variant": "C26U U69G", "self-cleavage": 0.96},
      {"variant": "C26U U79A", "self-cleavage": 1.04},
      {"variant": "C26U U79G", "self-cleavage": 1.03},
      {"variant": "U27A A51C", "self-cleavage": 0.86},
      {"variant": "U27A A56G", "self-cleavage": 1.08},
      {"variant": "U27A A70C", "self-cleavage": 0.782},
      {"variant": "U27A A78C", "self-cleavage": 0.0573},
      {"variant": "U27A A78G", "self-cleavage": 0.249},
      {"variant": "U27A A87G", "self-cleavage": 0.847},
      {"variant": "U27A A87U", "self-cleavage": 0.602},
      {"variant": "U27A C30G", "self-cleavage": 0.166},
      {"variant": "U27A C33A", "self-cleavage": 0.256},
      {"variant": "U27A C33U", "self-cleavage": 1.01},
      {"variant": "U27A C41U", "self-cleavage": 1.07},
      {"variant": "U27A C44A", "self-cleavage": 0.369},
      {"variant": "U27A C44G", "self-cleavage": 0.289},
      {"variant": "U27A C49G", "self-cleavage": 0.617},
      {"variant": "U27A C57A", "self-cleavage": 0.855},
      {"variant": "U27A C61G", "self-cleavage": 0.504},
      {"variant": "U27A C61U", "self-cleavage": 0.997},
      {"variant": "U27A C62A", "self-cleavage": 0.872},
      {"variant": "U27A C62G", "self-cleavage": 0.929},
      {"variant": "U27A C63G", "self-cleavage": 0.764},
      {"variant": "U27A C64A", "self-cleavage": 0.703},
      {"variant": "U27A C64G", "self-cleavage": 1.05},
      {"variant": "U27A C66U", "self-cleavage": 0.789},
      {"variant": "U27A C75G", "self-cleavage": 0.095},
      {"variant": "U27A C85G", "self-cleavage": 0.793},
      {"variant": "U27A C86A", "self-cleavage": 0.733},
      {"variant": "U27A G28U", "self-cleavage": 0.158},
      {"variant": "U27A G29A", "self-cleavage": 0.135},
      {"variant": "U27A G34A", "self-cleavage": 0.256},
      {"variant": "U27A G38C", "self-cleavage": 0.0665},
      {"variant": "U27A G52U", "self-cleavage": 0.846},
      {"variant": "U27A G53C", "self-cleavage": 0.831},
      {"variant": "U27A G54A", "self-cleavage": 0.961},
      {"variant": "U27A G55A", "self-cleavage": 1.08},
      {"variant": "U27A G59C", "self-cleavage": 0.939},
      {"variant": "U27A G59U", "self-cleavage": 0.95},
      {"variant": "U27A G67A", "self-cleavage": 1.32},
      {"variant": "U27A G67C", "self-cleavage": 0.59},
      {"variant": "U27A G68C", "self-cleavage": 0.688},
      {"variant": "U27A G73A", "self-cleavage": 0.391},
      {"variant": "U27A G74A", "self-cleavage": 0.0437},
      {"variant": "U27A G74U", "self-cleavage": 0.427},
      {"variant": "U27A G76A", "self-cleavage": 0.997},
      {"variant": "U27A G80A", "self-cleavage": 0.499},
      {"variant": "U27A G81C", "self-cleavage": 0.356},
      {"variant": "U27A G82U", "self-cleavage": 0.906},
      {"variant": "U27A U46A", "self-cleavage": 0.831},
      {"variant": "U27A U47A", "self-cleavage": 0.7},
      {"variant": "U27A U47C", "self-cleavage": 0.391},
      {"variant": "U27A U60A", "self-cleavage": 0.918},
      {"variant": "U27A U65C", "self-cleavage": 0.957},
      {"variant": "U27A U65G", "self-cleavage": 1.12},
      {"variant": "U27A U72C", "self-cleavage": 0.277},
      {"variant": "U27C A42C", "self-cleavage": 0.431},
      {"variant": "U27C A43G", "self-cleavage": 0.383},
      {"variant": "U27C A43U", "self-cleavage": 0.237},
      {"variant": "U27C A45G", "self-cleavage": 0.511},
      {"variant": "U27C A56C", "self-cleavage": 0.612},
      {"variant": "U27C A56G", "self-cleavage": 0.575},
      {"variant": "U27C A56U", "self-cleavage": 0.674},
      {"variant": "U27C A77U", "self-cleavage": 0.262},
      {"variant": "U27C A87U", "self-cleavage": 0.6},
      {"variant": "U27C C36G", "self-cleavage": 0.185},
      {"variant": "U27C C44U", "self-cleavage": 0.19},
      {"variant": "U27C C48A", "self-cleavage": 1.02},
      {"variant": "U27C C48U", "self-cleavage": 0.604},
      {"variant": "U27C C57A", "self-cleavage": 0.692},
      {"variant": "U27C C58G", "self-cleavage": 0.7},
      {"variant": "U27C C61G", "self-cleavage": 0.795},
      {"variant": "U27C C62A", "self-cleavage": 0.54},
      {"variant": "U27C C63U", "self-cleavage": 0.73},
      {"variant": "U27C C64A", "self-cleavage": 0.705},
      {"variant": "U27C C66U", "self-cleavage": 0.534},
      {"variant": "U27C C75A", "self-cleavage": 0.155},
      {"variant": "U27C C84G", "self-cleavage": 0.554},
      {"variant": "U27C C85G", "self-cleavage": 0.751},
      {"variant": "U27C G28C", "self-cleavage": 0.123},
      {"variant": "U27C G29A", "self-cleavage": 0.125},
      {"variant": "U27C G29C", "self-cleavage": 0.107},
      {"variant": "U27C G34C", "self-cleavage": 0.106},
      {"variant": "U27C G34U", "self-cleavage": 0.185},
      {"variant": "U27C G35U", "self-cleavage": 0.302},
      {"variant": "U27C G52A", "self-cleavage": 0.884},
      {"variant": "U27C G53A", "self-cleavage": 0.696},
      {"variant": "U27C G53C", "self-cleavage": 0.898},
      {"variant": "U27C G54A", "self-cleavage": 0.598},
      {"variant": "U27C G54U", "self-cleavage": 0.845},
      {"variant": "U27C G59U", "self-cleavage": 0.76},
      {"variant": "U27C G73A", "self-cleavage": 0.231},
      {"variant": "U27C G73U", "self-cleavage": 0.0449},
      {"variant": "U27C G74C", "self-cleavage": 0.383},
      {"variant": "U27C G74U", "self-cleavage": 0.332},
      {"variant": "U27C G76C", "self-cleavage": 1.21},
      {"variant": "U27C G80U", "self-cleavage": 0.21},
      {"variant": "U27C G82U", "self-cleavage": 0.208},
      {"variant": "U27C U60A", "self-cleavage": 1.09},
      {"variant": "U27C U65C", "self-cleavage": 0.798},
      {"variant": "U27C U69G", "self-cleavage": 0.712},
      {"variant": "U27C U72C", "self-cleavage": 0.166},
      {"variant": "U27G A51C", "self-cleavage": 0.906},
      {"variant": "U27G A51G", "self-cleavage": 1.03},
      {"variant": "U27G A56C", "self-cleavage": 0.712},
      {"variant": "U27G A70C", "self-cleavage": 0.554},
      {"variant": "U27G A71G", "self-cleavage": 0.875},
      {"variant": "U27G A71U", "self-cleavage": 0.598},
      {"variant": "U27G A77U", "self-cleavage": 0.346},
      {"variant": "U27G A78U", "self-cleavage": 0.0831},
      {"variant": "U27G A83C", "self-cleavage": 0.831},
      {"variant": "U27G A87C", "self-cleavage": 0.869},
      {"variant": "U27G C36G", "self-cleavage": 0.0665},
      {"variant": "U27G C41U", "self-cleavage": 0.831},
      {"variant": "U27G C44G", "self-cleavage": 0.598},
      {"variant": "U27G C48A", "self-cleavage": 0.72},
      {"variant": "U27G C48U", "self-cleavage": 0.942},
      {"variant": "U27G C49A", "self-cleavage": 0.886},
      {"variant": "U27G C61U", "self-cleavage": 0.831},
      {"variant": "U27G C64A", "self-cleavage": 0.705},
      {"variant": "U27G C75A", "self-cleavage": 0.0755},
      {"variant": "U27G C84A", "self-cleavage": 0.831},
      {"variant": "U27G C84G", "self-cleavage": 0.378},
      {"variant": "U27G C84U", "self-cleavage": 0.612},
      {"variant": "U27G C86G", "self-cleavage": 0.745},
      {"variant": "U27G G29A", "self-cleavage": 0.283},
      {"variant": "U27G G31A", "self-cleavage": 0.539},
      {"variant": "U27G G34U", "self-cleavage": 0.538},
      {"variant": "U27G G38C", "self-cleavage": 0.0692},
      {"variant": "U27G G38U", "self-cleavage": 0.133},
      {"variant": "U27G G39C", "self-cleavage": 0.0723},
      {"variant": "U27G G53U", "self-cleavage": 0.923},
      {"variant": "U27G G54C", "self-cleavage": 0.914},
      {"variant": "U27G G55C", "self-cleavage": 0.779},
      {"variant": "U27G G67U", "self-cleavage": 0.764},
      {"variant": "U27G G74A", "self-cleavage": 0.229},
      {"variant": "U27G G80A", "self-cleavage": 0.533},
      {"variant": "U27G G81A", "self-cleavage": 0.597},
      {"variant": "U27G G82C", "self-cleavage": 0.237},
      {"variant": "U27G G82U", "self-cleavage": 0.095},
      {"variant": "U27G U69C", "self-cleavage": 0.969},
      {"variant": "U27G U69G", "self-cleavage": 0.798},
      {"variant": "U27G U72C", "self-cleavage": 0.32},
      {"variant": "U27G U79A", "self-cleavage": 0.462},
      {"variant": "U27G U79G", "self-cleavage": 0.427},
      {"variant": "G28A", "self-cleavage": 0.0977},
      {"variant": "G28A A42C", "self-cleavage": 0.128},
      {"variant": "G28A A42U", "self-cleavage": 0.0723},
      {"variant": "G28A A43G", "self-cleavage": 0.0739},
      {"variant": "G28A A43U", "self-cleavage": 0.0241},
      {"variant": "G28A A45G", "self-cleavage": 0.0415},
      {"variant": "G28A A51U", "self-cleavage": 0.138},
      {"variant": "G28A A56C", "self-cleavage": 0},
      {"variant": "G28A A56U", "self-cleavage": 0.111},
      {"variant": "G28A A70U", "self-cleavage": 0.203},
      {"variant": "G28A A71G", "self-cleavage": 0.0831},
      {"variant": "G28A A77G", "self-cleavage": 0.111},
      {"variant": "G28A A83C", "self-cleavage": 0.0875},
      {"variant": "G28A A83G", "self-cleavage": 0.0946},
      {"variant": "G28A A83U", "self-cleavage": 0.0308},
      {"variant": "G28A A87U", "self-cleavage": 0.0932},
      {"variant": "G28A C30G", "self-cleavage": 0.117}
    ]}
  ]
}
